The values that follow come from US20030100060A1.

Where a chain is given by its changes, count along the chain named. Some results are limits rather than exact numbers.

Assay [1] addresses Inactivated Venezuelan equine encephalitis (VEE) whole virus antigen, strain TC-83 (Venezuelan equine encephalitis virus, strain TC-83) (UniProt P05674). In words: ELISA, […], in triplicate, […]. In general terms: ELISA stands for enzyme-linked immunosorbent assay.
Assay [2] has the same target. In words: ELISA of whole cell lysates on VEE antigen (FIG. 10).
The target is the same in assay [3]. In words: ELISA, HB2151 whole cell lysate, wells with and without VEE whole virus antigen.
For assay [4] the target is unchanged.
The target is the same in assay [5]. This is another data set of the same source.

UniProt P05674, sequence (P05674 335-757 limits assumed): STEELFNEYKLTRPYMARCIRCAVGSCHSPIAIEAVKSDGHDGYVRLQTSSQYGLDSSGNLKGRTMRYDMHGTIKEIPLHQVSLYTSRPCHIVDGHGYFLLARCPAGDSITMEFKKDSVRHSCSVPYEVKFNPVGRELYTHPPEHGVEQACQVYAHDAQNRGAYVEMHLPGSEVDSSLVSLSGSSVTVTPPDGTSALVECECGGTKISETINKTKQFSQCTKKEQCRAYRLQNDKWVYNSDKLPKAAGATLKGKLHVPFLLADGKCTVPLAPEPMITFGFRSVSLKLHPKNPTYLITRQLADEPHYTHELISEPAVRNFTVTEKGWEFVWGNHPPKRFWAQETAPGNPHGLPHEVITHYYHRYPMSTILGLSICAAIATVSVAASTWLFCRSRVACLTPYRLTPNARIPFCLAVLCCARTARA

B1: MA116-15 ScFv antibody (mutagenized, repaired A116) (scFv)
scFv: MAQVQLQESGPELVKPGASVKISCKASGYTFTDYHVHWVKGKPGQGLEWIGMTYPGFDNTNYSETFKGKATLTVDTSSNTVYMQLSSLTSEDTAVYFCARGVGLDYWGQGTTVTVSSGGGGSGGGGSGGGGSDIELTQSPNSLSTSIGDRIRITCKASQDVDTAVGWYQQRPGQSPKLLIFWSSTRHTGVPDRFTGSGSGTDFTLTISNVQSEDLADYFCHQYSSYPFTFGSGTKLEIKRAAAGAPVPYPDPLEPRAA
For B1, in assay [1], the fold ELISA reactivity against the original A116 clone came to 4 fold. Also, the fold ELISA reactivity against the parental A116 clone in assay [2] was > 4 fold. The fold retention, with VEE antigen over without in assay [3] is > 2.5 fold.

B2: MA116-4 ScFv antibody (scFv)
scFv: B1 scFv with D133A, I134S, E135S, L136S, T137L, Q138S, S139L, P140S, E213D
Turning to B2, the fold retention, with VEE antigen over without in assay [3] is > 2.5 fold.

B3: MA116-6 ScFv antibody (scFv)
scFv: MAQVQLQESGPELVKPGASVKISCKASGYTFTDYHVHWVKGKPGQGLEWIGMTYPGFDDTNYSETFKGKATLTVDTSSNTVYMQLSSLTSEDTAVYFCARGVGLDYWGQGTTVTVSSGGGGSGGGGSGGGGSDSSSLVSKFVSTSIGDRIRITCKASQDVDTAVGWYQQRPGQSPKLLIFWSSTRHTGVPDRFTGSGSGTDFTLTISNVQSEDLADYFCHQYSSYPFTFGSGTKLEIKRAAAGAPVPYPDPLEPRAA
Take B3: the fold retention, with VEE antigen over without in assay [3] was > 2.5 fold.

B4: A116 ScFv antibody (recombinant single chain variable fragment cloned from hybridoma 1A4A1) (scFv)
scFv: B3 scFv with D59N, S77F, N79T, A94V, Y225H
Turning to B4, in assay [4], the fold absorbance, wells with VEE antigen over wells without was > 2 fold. The molecule also gave a fold absorbance over the HB2151 negative control lysate in assay [5] of 4 fold.
